According to the supplement of paper PMC10724198:
± gives the standard deviation of the averaged measurements.

What was measured:
Saccharomyces cerevisiae [1] = test: protein stability index of tFT-peptide fusion (C-terminal peptide) (PSI (0-1 scale)); higher = more stable (slower turnover)
Procedure: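 MPS profiling in S. cerevisiae of the tFT-X12 degron library: putative degron peptides plus stable controls, 12 aa, fused to the C-terminus of a sfGFP-mCherry timer. Cells are FACS-sorted into 8 mCherry/sfGFP bins and deep-sequenced. PSI runs from 0 (unstable) to 1 (stable). Backgrounds are wild type, das1Δ and doa10Δ at 30 °C, and wild type, das1Δ, cdc34-1 and cdc53-1 at 37 °C; 2-3 technical replicates each.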

Saccharomyces cerevisiae [2] = test: as above; details: genetic background: wild type; temperature: 30 C
[3] = genetic background: cdc34-1, temperature: 37 C
[4] = genetic background: cdc53-1, temperature: 37 C
[5] = genetic background: das1 deletion, temperature: 30 C
[6] = genetic background: das1 deletion, temperature: 37 C
[7] = genetic background: doa10 deletion, temperature: 30 C
[8] = genetic background: wild type, temperature: 30 C
[9] = genetic background: wild type, temperature: 37 C
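Also: PSI is a weighted mean of sequencing reads over stability bins, variants kept only with over 10 reads, mCherry proximal and sfGFP distal, peptide attached via GGGS linker.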

## PPSLPPLISFSP
Saccharomyces cerevisiae [1]; [3]
  protein stability index: 0.7 ± 0.039
Saccharomyces cerevisiae [1]; [4]
  protein stability index: 0.7808 ± 0.0052
Saccharomyces cerevisiae [1]; [5]
  protein stability index: 0.656 ± 0.015
Saccharomyces cerevisiae [1]; [6]
  protein stability index: 0.7661 ± 0.0014
Saccharomyces cerevisiae [1]; [7]
  protein stability index: 0.669 ± 0.011
Saccharomyces cerevisiae [1]; [8]
  protein stability index: 0.6624 ± 0.0039
Saccharomyces cerevisiae [1]; [9]
  protein stability index: 0.7407 ± 0.0059
Saccharomyces cerevisiae [2]
  protein stability index: 0.729 ± 0.03

## PPSRSPLPPLLH
Saccharomyces cerevisiae [1]; [3]
  protein stability index: 0.657 ± 0.04
Saccharomyces cerevisiae [1]; [4]
  protein stability index: 0.729 ± 0.024
Saccharomyces cerevisiae [1]; [5]
  protein stability index: 0.687 ± 0.041
Saccharomyces cerevisiae [1]; [6]
  protein stability index: 0.707 ± 0.017
Saccharomyces cerevisiae [1]; [7]
  protein stability index: 0.6917 ± 0.0047
Saccharomyces cerevisiae [1]; [8]
  protein stability index: 0.686 ± 0.027
Saccharomyces cerevisiae [1]; [9]
  protein stability index: 0.694 ± 0.031
Saccharomyces cerevisiae [2]
  protein stability index: 0.723 ± 0.027

## PPTPYPRFIFSF
Saccharomyces cerevisiae [1]; [3]
  protein stability index: 0.688 ± 0.048
Saccharomyces cerevisiae [1]; [4]
  protein stability index: 0.7541 ± 0.0012
Saccharomyces cerevisiae [1]; [5]
  protein stability index: 0.647 ± 0.023
Saccharomyces cerevisiae [1]; [6]
  protein stability index: 0.7672 ± 0.0047
Saccharomyces cerevisiae [1]; [7]
  protein stability index: 0.331 ± 0.02
Saccharomyces cerevisiae [1]; [8]
  protein stability index: 0.372 ± 0.028
Saccharomyces cerevisiae [1]; [9]
  protein stability index: 0.601 ± 0.0037
Saccharomyces cerevisiae [2]
  protein stability index: 0.459 ± 0.027

## PPVPRLLPVLAP
Saccharomyces cerevisiae [1]; [3]
  protein stability index: 0.525 ± 0.038
Saccharomyces cerevisiae [1]; [4]
  protein stability index: 0.503 ± 0.015
Saccharomyces cerevisiae [1]; [5]
  protein stability index: 0.379 ± 0.025
Saccharomyces cerevisiae [1]; [6]
  protein stability index: 0.546 ± 0.02
Saccharomyces cerevisiae [1]; [7]
  protein stability index: 0.348 ± 0.0045
Saccharomyces cerevisiae [1]; [8]
  protein stability index: 0.385 ± 0.025
Saccharomyces cerevisiae [1]; [9]
  protein stability index: 0.506 ± 0.0077
Saccharomyces cerevisiae [2]
  protein stability index: 0.474 ± 0.0057

## PRIVLFLRLHSN
Saccharomyces cerevisiae [1]; [3]
  protein stability index: 0.555 ± 0.082
Saccharomyces cerevisiae [1]; [4]
  protein stability index: 0.651 ± 0.042
Saccharomyces cerevisiae [1]; [5]
  protein stability index: 0.512 ± 0.014
Saccharomyces cerevisiae [1]; [6]
  protein stability index: 0.6891 ± 0.002
Saccharomyces cerevisiae [1]; [7]
  protein stability index: 0.107 ± 0.029
Saccharomyces cerevisiae [1]; [8]
  protein stability index: 0.118 ± 0.02
Saccharomyces cerevisiae [1]; [9]
  protein stability index: 0.2184 ± 0.0019
Saccharomyces cerevisiae [2]
  protein stability index: 0.21 ± 0.0069

## PRPETCHAVAVR
Saccharomyces cerevisiae [1]; [3]
  protein stability index: 0.568 ± 0.012
Saccharomyces cerevisiae [1]; [4]
  protein stability index: 0.588 ± 0.037
Saccharomyces cerevisiae [1]; [5]
  protein stability index: 0.377 ± 0.034
Saccharomyces cerevisiae [1]; [6]
  protein stability index: 0.575 ± 0.015
Saccharomyces cerevisiae [1]; [7]
  protein stability index: 0.363 ± 0.0093
Saccharomyces cerevisiae [1]; [8]
  protein stability index: 0.4 ± 0.029
Saccharomyces cerevisiae [1]; [9]
  protein stability index: 0.58 ± 0.011
Saccharomyces cerevisiae [2]
  protein stability index: 0.4806 ± 0.0021

## PRPLLSIYLRHA
Saccharomyces cerevisiae [1]; [3]
  protein stability index: 0.597 ± 0.036
Saccharomyces cerevisiae [1]; [4]
  protein stability index: 0.666 ± 0.014
Saccharomyces cerevisiae [1]; [5]
  protein stability index: 0.599 ± 0.023
Saccharomyces cerevisiae [1]; [6]
  protein stability index: 0.69 ± 0.019
Saccharomyces cerevisiae [1]; [7]
  protein stability index: 0.29 ± 0.013
Saccharomyces cerevisiae [1]; [8]
  protein stability index: 0.315 ± 0.017
Saccharomyces cerevisiae [1]; [9]
  protein stability index: 0.553 ± 0.022
Saccharomyces cerevisiae [2]
  protein stability index: 0.405 ± 0.018

## PRQPSKSNASNR
Saccharomyces cerevisiae [1]; [3]
  protein stability index: 0.692 ± 0.044
Saccharomyces cerevisiae [1]; [4]
  protein stability index: 0.7277 ± 0.00076
Saccharomyces cerevisiae [1]; [5]
  protein stability index: 0.623 ± 0.023
Saccharomyces cerevisiae [1]; [6]
  protein stability index: 0.722 ± 0.015
Saccharomyces cerevisiae [1]; [7]
  protein stability index: 0.64909 ± 0.00052
Saccharomyces cerevisiae [1]; [8]
  protein stability index: 0.635 ± 0.0095
Saccharomyces cerevisiae [1]; [9]
  protein stability index: 0.701 ± 0.022
Saccharomyces cerevisiae [2]
  protein stability index: 0.582 ± 0.13

## PSIALVRLDVIC
Saccharomyces cerevisiae [1]; [3]
  protein stability index: 0.383 ± 0.0059
Saccharomyces cerevisiae [1]; [4]
  protein stability index: 0.471 ± 0.0073
Saccharomyces cerevisiae [1]; [5]
  protein stability index: 0.32 ± 0.038
Saccharomyces cerevisiae [1]; [6]
  protein stability index: 0.46 ± 0.004
Saccharomyces cerevisiae [1]; [7]
  protein stability index: 0.297 ± 0.011
Saccharomyces cerevisiae [1]; [8]
  protein stability index: 0.327 ± 0.031
Saccharomyces cerevisiae [1]; [9]
  protein stability index: 0.443 ± 0.0051
Saccharomyces cerevisiae [2]
  protein stability index: 0.392 ± 0.017

## PSPFHSFYLRLI
Saccharomyces cerevisiae [1]; [3]
  protein stability index: 0.5716 ± 0.0014
Saccharomyces cerevisiae [1]; [4]
  protein stability index: 0.643 ± 0.009
Saccharomyces cerevisiae [1]; [5]
  protein stability index: 0.579 ± 0.011
Saccharomyces cerevisiae [1]; [6]
  protein stability index: 0.712 ± 0.028
Saccharomyces cerevisiae [1]; [7]
  protein stability index: 0.263 ± 0.0033
Saccharomyces cerevisiae [1]; [8]
  protein stability index: 0.249 ± 0.014
Saccharomyces cerevisiae [1]; [9]
  protein stability index: 0.483 ± 0.0017
Saccharomyces cerevisiae [2]
  protein stability index: 0.398 ± 0.033

## PSPPPYAPPIPA
Saccharomyces cerevisiae [1]; [3]
  protein stability index: 0.549 ± 0.03
Saccharomyces cerevisiae [1]; [4]
  protein stability index: 0.611 ± 0.055
Saccharomyces cerevisiae [1]; [5]
  protein stability index: 0.44 ± 0.023
Saccharomyces cerevisiae [1]; [6]
  protein stability index: 0.5857 ± 0.0057
Saccharomyces cerevisiae [1]; [7]
  protein stability index: 0.416 ± 0.019
Saccharomyces cerevisiae [1]; [8]
  protein stability index: 0.447 ± 0.021
Saccharomyces cerevisiae [1]; [9]
  protein stability index: 0.563 ± 0.02
Saccharomyces cerevisiae [2]
  protein stability index: 0.488 ± 0.0057

## PSSPTPPPSSSP
Saccharomyces cerevisiae [1]; [3]
  protein stability index: 0.655 ± 0.021
Saccharomyces cerevisiae [1]; [4]
  protein stability index: 0.726 ± 0.011
Saccharomyces cerevisiae [1]; [5]
  protein stability index: 0.664 ± 0.017
Saccharomyces cerevisiae [1]; [6]
  protein stability index: 0.73 ± 0.0086
Saccharomyces cerevisiae [1]; [7]
  protein stability index: 0.679 ± 0.017
Saccharomyces cerevisiae [1]; [8]
  protein stability index: 0.673 ± 0.011
Saccharomyces cerevisiae [1]; [9]
  protein stability index: 0.7306 ± 0.0015
Saccharomyces cerevisiae [2]
  protein stability index: 0.353 ± 0.039

## PSSVKLRVPSLY
Saccharomyces cerevisiae [1]; [3]
  protein stability index: 0.672 ± 0.029
Saccharomyces cerevisiae [1]; [4]
  protein stability index: 0.762 ± 0.033
Saccharomyces cerevisiae [1]; [5]
  protein stability index: 0.623 ± 0.021
Saccharomyces cerevisiae [1]; [6]
  protein stability index: 0.7309 ± 0.00087
Saccharomyces cerevisiae [1]; [7]
  protein stability index: 0.61091 ± 0.00013
Saccharomyces cerevisiae [1]; [8]
  protein stability index: 0.636 ± 0.015
Saccharomyces cerevisiae [1]; [9]
  protein stability index: 0.715 ± 0.033
Saccharomyces cerevisiae [2]
  protein stability index: 0.7075 ± 0.0025

## PTPSRPPHPPLR
Saccharomyces cerevisiae [1]; [3]
  protein stability index: 0.704 ± 0.049
Saccharomyces cerevisiae [1]; [4]
  protein stability index: 0.752 ± 0.05
Saccharomyces cerevisiae [1]; [5]
  protein stability index: 0.633 ± 0.013
Saccharomyces cerevisiae [1]; [6]
  protein stability index: 0.725 ± 0.054
Saccharomyces cerevisiae [1]; [7]
  protein stability index: 0.658 ± 0.025
Saccharomyces cerevisiae [1]; [8]
  protein stability index: 0.66 ± 0.0015
Saccharomyces cerevisiae [1]; [9]
  protein stability index: 0.69 ± 0.0022
Saccharomyces cerevisiae [2]
  protein stability index: 0.704 ± 0.02

## PVALYPVQAYLT
Saccharomyces cerevisiae [1]; [3]
  protein stability index: 0.5565 ± 0.0049
Saccharomyces cerevisiae [1]; [4]
  protein stability index: 0.71 ± 0.025
Saccharomyces cerevisiae [1]; [5]
  protein stability index: 0.616 ± 0.012
Saccharomyces cerevisiae [1]; [6]
  protein stability index: 0.715 ± 0.022
Saccharomyces cerevisiae [1]; [7]
  protein stability index: 0.119 ± 0.01
Saccharomyces cerevisiae [1]; [8]
  protein stability index: 0.146 ± 0.017
Saccharomyces cerevisiae [1]; [9]
  protein stability index: 0.265 ± 0.094
Saccharomyces cerevisiae [2]
  protein stability index: 0.2307 ± 0.0013

## PVFVLFFFSSLV
Saccharomyces cerevisiae [1]; [3]
  protein stability index: 0.421 ± 0.012
Saccharomyces cerevisiae [1]; [4]
  protein stability index: 0.533 ± 0.0086
Saccharomyces cerevisiae [1]; [5]
  protein stability index: 0.371 ± 0.028
Saccharomyces cerevisiae [1]; [6]
  protein stability index: 0.5579 ± 0.0041
Saccharomyces cerevisiae [1]; [7]
  protein stability index: 0.329 ± 0.011
Saccharomyces cerevisiae [1]; [8]
  protein stability index: 0.35 ± 0.013
Saccharomyces cerevisiae [1]; [9]
  protein stability index: 0.5151 ± 0.0018
Saccharomyces cerevisiae [2]
  protein stability index: 0.44 ± 0.012

## PVLIFTWVIVCH
Saccharomyces cerevisiae [1]; [3]
  protein stability index: 0.0357 ± 0.011
Saccharomyces cerevisiae [1]; [4]
  protein stability index: 0.0674 ± 0.026
Saccharomyces cerevisiae [1]; [5]
  protein stability index: 0.0676 ± 0.026
Saccharomyces cerevisiae [1]; [6]
  protein stability index: 0.142 ± 0.013
Saccharomyces cerevisiae [1]; [7]
  protein stability index: 0.0332 ± 0.0019
Saccharomyces cerevisiae [1]; [8]
  protein stability index: 0.0533 ± 0.023
Saccharomyces cerevisiae [1]; [9]
  protein stability index: 0.0899 ± 0.012
Saccharomyces cerevisiae [2]
  protein stability index: 0.162 ± 0.036

## PVLPPPLLLCPC
Saccharomyces cerevisiae [1]; [3]
  protein stability index: 0.0283 ± 0.018
Saccharomyces cerevisiae [1]; [4]
  protein stability index: 0.0268 ± 0.011
Saccharomyces cerevisiae [1]; [5]
  protein stability index: 0.119 ± 0.023
Saccharomyces cerevisiae [1]; [6]
  protein stability index: 0.11 ± 0.024
Saccharomyces cerevisiae [1]; [7]
  protein stability index: 0.0972 ± 0.0096
Saccharomyces cerevisiae [1]; [8]
  protein stability index: 0.15 ± 0.018
Saccharomyces cerevisiae [1]; [9]
  protein stability index: 0.0932 ± 0.032
Saccharomyces cerevisiae [2]
  protein stability index: 0.22801 ± 2.4e-05

## PWEYSSQLVLVI
Saccharomyces cerevisiae [1]; [3]
  protein stability index: 0.0478 ± 0.02
Saccharomyces cerevisiae [1]; [4]
  protein stability index: 0.0865 ± 0.011
Saccharomyces cerevisiae [1]; [5]
  protein stability index: 0.179 ± 0.025
Saccharomyces cerevisiae [1]; [6]
  protein stability index: 0.2067 ± 0.0011
Saccharomyces cerevisiae [1]; [7]
  protein stability index: 0.155 ± 0.0084
Saccharomyces cerevisiae [1]; [8]
  protein stability index: 0.177 ± 0.023
Saccharomyces cerevisiae [1]; [9]
  protein stability index: 0.159 ± 0.021
Saccharomyces cerevisiae [2]
  protein stability index: 0.281 ± 0.022
